Laboratory results from patent US20140223597A1, “Mutated Hydroxyphenylpyruvate Dioxygenase, DNA Sequence and Isolation of Plants Which Are Tolerant To HPPD Inhibitor Herbicides” (Bayer CropScience AG, priority 2008, published 2014).
Changes are numbered by the printed parent chain.

B1: Gly422 mutant Asn: Arabidopsis thaliana HPPD (SEQ ID NO 4) with Gly422 replaced by Asn, N-terminal His6-tag (protein, UniProt P93836 1-445, looked up, variant G422N)
4-hydroxyphenylpyruvate …: MGHQNAAVSENQNHDDGAASSPGFKLVGFSKFVRKNPKSDKFKVKRFHHIEFWCGDATNVARRFSWGLGMRFSAKSDLSTGNMVHASYLLTSGDLRFLFTAPYSPSLSAGEIKPTTTASIPSFDHGSCRSFFSSHGLGVRAVAIEVEDAESAFSISVANGAIPSSPPIVLNEAVTIAEVKLYGDVVLRYVSYKAEDTEKSEFLPGFERVEDASSFPLDYGIRRLDHAVGNVPELGPALTYVAGFTGFHQFAEFTADDVGTAESGLNSAVLASNDEMVLLPINEPVHGTKRKSQIQTYLEHNEGAGLQHLALMSEDIFRTLREMRKRSSIGGFDFMPSPPPTYYQNLKKRVGDVLSDDQIKECEELGILVDRDDQGTLLQIFTKPLGDRPTIFIEIIQRVGCMMKDEEGKAYQSGGCGGFGKNNFSELFKSIEEYEKTLEAKQLVG
modifications: N-terminal His6-tag
B2: Phe (protein, UniProt P93836 1-445, looked up, variant G422F)
4-hydroxyphenylpyruvate …: B1 4-hydroxyphenylpyruvate … with N422F
B3: Cys (protein, UniProt P93836 1-445, looked up, variant G422C)
4-hydroxyphenylpyruvate …: B1 4-hydroxyphenylpyruvate … with N422C
B4: Met (protein, UniProt P93836 1-445, looked up, variant G422M)
4-hydroxyphenylpyruvate …: B1 4-hydroxyphenylpyruvate … with N422M
B5: Pro (protein, UniProt P93836 1-445, looked up, variant G422P)
4-hydroxyphenylpyruvate …: B1 4-hydroxyphenylpyruvate … with N422P
B6: Asn (protein, UniProt P93836 1-445, looked up, variant G422N)
4-hydroxyphenylpyruvate …: B1 4-hydroxyphenylpyruvate …
B7: Gly422 mutant Cys: Arabidopsis thaliana HPPD (SEQ ID NO 4) with Gly422 replaced by Cys, N-terminal His6-tag (protein, UniProt P93836 1-445, looked up, variant G422C)
4-hydroxyphenylpyruvate …: B1 4-hydroxyphenylpyruvate … with N422C
modifications: N-terminal His6-tag
B8: Asp (protein, UniProt P93836 1-445, looked up, variant G422D)
4-hydroxyphenylpyruvate …: B1 4-hydroxyphenylpyruvate … with N422D
B9: Gly422 mutant Val: Arabidopsis thaliana HPPD (SEQ ID NO 4) with Gly422 replaced by Val, N-terminal His6-tag (protein, UniProt P93836 1-445, looked up, variant G422V)
4-hydroxyphenylpyruvate …: B1 4-hydroxyphenylpyruvate … with N422V
modifications: N-terminal His6-tag
B10: His (protein, UniProt P93836 1-445, looked up, variant G422H)
4-hydroxyphenylpyruvate …: B1 4-hydroxyphenylpyruvate … with N422H
B11: Gly422 mutant His: Arabidopsis thaliana HPPD (SEQ ID NO 4) with Gly422 replaced by His, N-terminal His6-tag (protein, UniProt P93836 1-445, looked up, variant G422H)
4-hydroxyphenylpyruvate …: B1 4-hydroxyphenylpyruvate … with N422H
modifications: N-terminal His6-tag
B12: Leu (protein, UniProt P93836 1-445, looked up, variant G422L)
4-hydroxyphenylpyruvate …: B1 4-hydroxyphenylpyruvate … with N422L
B13: Ser (protein, UniProt P93836 1-445, looked up, variant G422S)
4-hydroxyphenylpyruvate …: B1 4-hydroxyphenylpyruvate … with N422S
B14: Val (protein, UniProt P93836 1-445, looked up, variant G422V)
4-hydroxyphenylpyruvate …: B1 4-hydroxyphenylpyruvate … with N422V

Assays:
[1] = test system: Arabidopsis thaliana HPPD; assay: Assay for HPPD activity (4-HPP consumption, DNP photometric readout at 405 nm) in presence and absence of Tembotrione; type: biochemical; conditions: uninhibited enzyme activity set to 100%, 444 nM HPPD, 500 μM 4-HPP, 1 h room temperature
Method: (§1) HPPD produces homogentisate and CO2 from 4-HPP and O2. The enzyme is incubated with its substrate 4-HPP in the presence or absence of an inhibitor. L-ascorbic acid is present as a reductant to retain the active site iron in the ferrous form and Catalase is present to degrade toxic H2O2. After an incubation time of one hour, the reaction is stopped by addition of 2,4-Dinitrophenylhydrazine (DNP). DNP forms a hydrazone derivative with the remaining 4-HPP molecules in the assay mixture which appears in an amber-brown colour at an alkaline pH. The amount of unconsumed 4-HPP is measured photometrically at 405 nm.
(§2) For preparation of inhibitor stock solutions, Tembotrione (MW=440.82) and DKN (Mw=359.3) are dissolved in DMSO to a concentration of 10 mM. […] Further dilutions are made with ddH2O to obtain the inhibitor solutions used in the assay (5 μM, 10 μM and 20 μM). […] A 2% DMSO solution provides for half of the assay mixture in uninhibited reactions to normalize a possible inhibiting effect of DMSO.
(§3) The assay is designed for a HPPD concentration of 444 nM on a monomeric basis and a 4-HPP concentration of 500 μM. This corresponds to 44.4 pmol HPPD and 50 nmol 4-HPP in a 100 μL-assay mixture, resulting in an approximate 1000-fold excess of substrate in relation to the enzyme. The calculated theoretical molecular weight of an AtHPPD subunit is 49.515 kD which results in 2.2 μg HPPD per assay mixture. The calculated theoretical molecular weight of a PfHPPD subunit is 41.205 kD, resulting in 1.8 μg HPPD per assay mixture. The enzyme solution provides for one quarter of the assay mixture volume, so enzyme stock solutions are produced by diluting AtHPPD solutions to 88 μg*mL^−1 with 50 mM TRIS buffer; PfHPPD solutions are diluted to 72 μg*mL^−1.
(§4) The inhibitor concentrations (2.5 μM, 5 μM and 10 μM) provide for 5-fold, 10-fold and 20-fold excess of inhibitor compared to the amount of enzyme. A buffer/substrate solution is prepared which provides for one quarter of the assay mixture. 2.5 mL of buffer/substrate solution contain 1 mL 1 M TRIS buffer, 500 μL 10 mM 4-HPP solution, 500 μL 200 mM L-ascorbic acid solution, 13 μL Catalase solution and 487 μL ddH2O. The assay is carried out in Greiner F-bottom 96 well microplates and all reactions are carried out as triplicates. The controls are carried out sixfold per plate and contain either 25 μL 50 mM TRIS instead of HPPD solution (corresponding to 0% consumption of 4-HPP) or a buffer/substrate solution that contains 500 μL 1 M TRIS instead of 500 μL 10 mM 4-HPP (corresponding to 100% consumption of HPP). The reaction is started by addition of 25 μL HPPD solution to a mixture of 50 μL of the respective inhibitor solution or 50 μL 2% DMSO and 25 μL buffer/substrate solution. The reaction is allowed to proceed for 1 h at room temperature. The reaction is stopped and coloration of 4-HPP is induced by addition of 50 μL 0.04% DNP/3.8 N HCl solution. After 15 min, addition of 100 μL 5 N KOH leads to the colour shift of the hydrazone derivative. Photometric measurement with a BMG FLUOstar Galaxy microplate reader is carried out immediately at 405 nm and data obtained is used for analysis of HPPD activities in presence and absence of an inhibitor.

[2] = test system: Pseudomonas fluorescens HPPD; assay: as above; type: biochemical; conditions: uninhibited enzyme activity set to 100%, 444 nM HPPD, 500 μM 4-HPP, 1 h room temperature
Method: as §1, §2, §3, §4

Row | Molecule | Relative activity (in percentage) of At HPPD mutants in presence of Tembotrione ([1]; […] Tembotrione) [%] | Relative activity (in percentage) of At HPPD mutants in presence of Tembotrione ([1]; 5 μM Tembotrione) | Relative activity (in percentage) of At HPPD mutants in presence of Tembotrione ([1]; 10 μM Tembotrione) | Relative activity (in percentage) of Pf HPPD mutants in presence of Tembotrione ([2]; 5 μM Tembotrione) [%] | Relative activity (in percentage) of Pf HPPD mutants in presence of Tembotrione ([2]; 10 μM Tembotrione) [%] | Relative activity (in percentage) of Pf HPPD mutants in presence of Tembotrione ([2]; […] Tembotrione) [%]
1 | B1 | 39 |  |  |  |  | 
2 | B2 | 30 | 16% | 11% | 12 | 3 | 33
3 | B3 | 44 | 27% | 19% |  |  | 
4 | B4 | 18 | 13% | 12% | 7 | 10 | 16
5 | B5 | 0 | 0% | 0% | 4 | 0 | 5
6 | B6 | 39 | 26% | 15% |  |  | 
7 | B7 | 44 |  |  |  |  | 
8 | B8 | 20 | 7% | 10% | 9 | 0 | 18
9 | B9 | 43 |  |  |  |  | 
10 | B10 | 50 | 31% | 40% | 13 | 11 | 26
11 | B11 | 51 | about 40% | about 40% |  |  | 
12 | B12 | 31 | 23% | 14% | 0 | 0 | 4
13 | B13 | 18 | 4% | 0% |  |  | 
14 | B14 | 43 | 22% | 14% |  |  | 
